Source: the DeepSol protein solubility set

Assay: soluble on expression in E. coli; label from the status in PepcDB or PDB records

Sequence	soluble on expression in E. coli
MSPMNRQRKNKSHVLNEKDERPGGIIKEKSSVRSMAKTQPPSGRTISLTEINKPNALSKKNTEIKAAVEIQNRLTKKMAKNSERRKQMAHGPEMTAQNRTQERIDFVDFLDRHYQVIQAGVHKIQYTKEEFENVIYEAQTIFSSEKALVDIDPPCVVVGDLHGQFNDLINMFILLGRPPETVYVFTGDYVDRGMMSLECIMLLFTYKICYPENIVLLRGNHEIARVNKKYGFYEECVTSIPKCGEEIWALFQRCFNNLPISALIATKILCMHGGLSPALTCLDELRNHPKPIRNPFRGIVNDMLWADPDPSVFEWKASSRGSGFTFGTNVIDDVCKRLGVELIIRAHQMCFDGYWVLSGRKLITIFSAPMYCNFYKNAGCVLKVDETLGIQMIAFVPASENIEKIIEEKNRVWDISIDCID	not soluble
MGSDKIHHHHHHAQQQELPVPKPHQLKWHEAEMGAVFHYDLHVFDGIRYGQGNNRINPIEDYNIFNPTELNTDQWVQAAKAAGCKFAVLTATHETGFGLWQSDVNPYCLKAVKWRDGKGDIVRDFVNSCRKYGLQPGIYIGIRWNSLLGIHNFKAEGEGAFARNRQAWYKRLCEKMVTELCTRYGDLYMIWFDGGADDPRADGPDVEPIVNKYQPNCLFYHNIDRADFRWGGSETGTVEYPCWSTFPVPCSHHKRIESSIDQLELLKHGDKNGRYWVPAMADTPLRGANGRHEWFWEPDDENNIYPLNTLMDKYEKSVGRNATLILGLTPDPTGLIPAGDAQRLKEMGDEINRRFSSPIARISGQKKSLTLKLGKEQSVNYCIIQENIKNGERIRQYQIEAKVNGKWQTVCKGESVGHKRIEKFEPVEATALRLTVSESIALPDIINFSAYSVK	not soluble
MGSDKIHHHHHHMQTHQELYLPRMGCGTWAWGNQLLWGYNESMDEQLQAVFNLCVSNGVTLFDTGDSYGTGRLNGRSELLLGQFAQEYQGVNQENICIATKLAAYPWRWTRQSMINACKSSAQRLGRNVDLVQMHWSTANYAPWQESGLLDGLADLYEQGLVKGVGLSNYGTKRLQRVHQKFAERGVPIKTLQVQYSLLSTYPVTELGLKDVCDQLGIKLIAYSPLALGILTGKYSEKGPFPRGVRGLLFRQLLPGVRSLLQCLQDVAQSRNKTMSQVALNWCIAKGTIPIPGAKSVKQAQENIGALGWQLDSGEIAELDKAAASSDKKMVQNIFQTK	not soluble
MKHMPRKMYSCAFETTTKVEDCRVWAYGYMNIEDHSEYKIGNSLDEFMAWVLKVQADLYFHNLKFAGAFIINWLERNGFKWSADGLPNTYNTIISRMGQWYMIDICLGYKGKRKIHTVIYDSLKKLPFPVKKIAKDFKLTVLKGDIDYHKERPVGYKITPEEYAYIKNDIQIIAEALLIQFKQGLDRMTAGSDSLKGFKDIITTKKFKKVFPTLSLGLDKEVRYAYRGGFTWLNDRFKEKEIGEGMVFDVNSLYPAQMYSRLLPYGEPIVFEGKYVWDEDYPLHIQHIRCEFELKEGYIPTIQIKRSRFYKGNEYLKSSGGEIADLWLSNVDLELMKEHYDLYNVEYISGLKFKATTGLFKDFIDKWTYIKTTSEGAIKQLAKLMLNSLYGKFASNPDVTGKVPYLKENGALGFRLGEEETKDPVYTPMGVFITAWARYTTITAAQACYDRIIYCDTDSIHLTGTEIPDVIKDIVDPKKLGYWAHESTFKRAKYLRQKTYIQDIYMKEVDGKLVEGSPDDYTDIKFSVKCAGMTDKIKKEVTFENFKVGFSRKMKPKPVQVPGGVVLVDDTFTIK	soluble
MGSDKIHHHHHHMTLSDPRFISLNQWLNCYFSDDVTPILISGDASFRRYFRVFAHDTSYIIADSPPALVPIAPFIALSSAYAAAGLTVPKVIASDADQGFMLLSDLGDTQLLSVLTDDNVADYYCRALALLPQVATVVESQDPVSGITQPLPLYDEAFVRRELGIFTEWLLARHLQLELGDEERTLVDESFDLLVKNALAQPKVGMHRDFHSRNLMLKDGGLCVIDFQDAVLGPVTYDAVSLLRDCYIRWPQAMVLELIQQHYQQVLESGHLPEGTSFRQYQSWFDLMGLQRHIKAAGIFARLYYRDNKPAYMADIPLTLAYIVDIARMYPELAPFAAWVESRVIPAFNLPLKQQDKQPGSSR	not soluble
MGHHHHHHSHMDIQKSENEDDSEWEDVDDEKGDSNDDYDSAGLLSDEDCMSVPGKTHRAIADHLFWSEETKSRFTEYSMTSSVMRRNEQLTLHDERFEKFYEQYDDDEIGALDNAELEGSIQVDSNRLQEVLNDYYKEKAENCVKLNTLEPLEDQDLPMNELDESEEEEMITVVLEEAKEKWDCESICSTYSNLYNHPQLIKYQPKPKQIRISSKTGIPLNVLPKKGLTAKQTERIQMINGSDLPKVSTQPRSKNESKEDKRARKQAIKEERKERRVEKKANKLAFKLEKRRQEKELLNLKKNVEGLKL	not soluble
MINNDLLRRISNIFDLTDETILTTFALSQCEISAEQLTNFFKEKDDTAYQPLEDVQFASFLNGLIIAKRGPSDGPERPVEEELTNNMIFNKVKIALSLKAEEVIATLELADLSLGKYELSAFFRNVNNKHYKDCSDEVLSAFLKGLKIKSK	not soluble
MGSDKIHHHHHHMSELRQQCLWEHVSKPTVAAQALAGEHKADVCVIGGGITGLSAAIHLLEQGKSVIVLEAWKIGHGGSGRNVGLVNAGTWIRPDDVEATLGQKQGSRLNKVLGEAPAEVFAMIERLGIDCQAQHKGTLHMAHNATGIADLEARHEQWRRRGADVELLTGAQCQEYCGTDKISAALLDRRAGTINPMGYTQGLAAAVTRLGGKIFQQSSVEGLEREGDGWRVKTARGAVRAEKVVISTGAYTEGDWSNLQKQFFRGYYYQVASKPLQGIAADKVLPHGQGSWDTRTVLSSIRRDDQGRLLLGSLGRVDNKPAWFVRSWADRIQSHYYPELGKVEWEMHWTGCIDFTPDHLMRLFEPAPGLVAVTGYNGRGNTTGTVIGRAFAEFLLKGEADSLPIPFSPMSGVSAPSLRTAFYESGFSLYHAGQCLRVVL	not soluble
MSLYVDAGLQPLDKNNKKLVQVHIPEGSSNKQIAAVLEESNVIKSGMVFNYYVKFKNLTDFQAGYYQMSPSMTLDEIGEMLKEGGTPEPTKIADGKVTIPEGYDIDKIGEAIEKNTDFKKADFIALMKNEDFFNQMKAKYPDLLESAATAEGVRYRLEGYLFPATYDYYKKATLPEFVEQMIAKMNTVMEQYTPTIHAKNLTNQQVLTLASLVEKEGVKEADRKQIAQVFFNRLAADMPIQSDISILYALGEHKETVTYADLEVDSSYNLYKNTGYGPGPLDSPSEESIKAVLNPTPSDYLYFVADISTGKVYFSKTYEEHQVLVDQYVNNSSSEEGHHHHHH	soluble
MMVYQRPVFTVISLLRIRNREEAKLVLIGAVVVYRNFVEQTLADAQKNWVKSLVLYDDPGDAVTGILTWFSRYACLHGPRLGPLDTIAVNDNPLYIYCPRRKLEEYAKERIVSFHSEIGSVVCSMSPFDAGVTREKVRYGHNLISPGSCLLPDALEAYVAFLPSKSFLKLPYSVYEVHNDRYVHKFFALLPGSRFHFEVVAVGLAYPAAKKRPSGLGILRCCFTGKTNTCLLEHHHHHH	soluble
MAHHHHHHMSSVKITLFQGKFRLDRLLGKGGFGEVYAGVQVSTGEPVAVKLERNKGRCFLFHEARVMQDIQNSMPGRTTPGIPELKYFGQEGDFRILIMSLLGPSLEDLHAKLGRFSLKTTVMLADEMLSRLEFIHSVGYIHRDLKPDNYLLGVGRNVRHLYLIDLGLSVRYRSTNGEHREMATGKSFVGTSRYASLRTHKGFSQSRRDDMEQLSYILIYLYRGHLPWSGLRMKDREAKEKAIGEIKQKLTTAQICSKCPSQFEDLLNYSRKLEFAESPQYEMCRILIASVLDTIGPNVKHDFQYDWVNVRKRDNSPPPPPPCIVTHERRATENKINLKKGNENGEKDAATIGSKIFCFFPGLSSSASQEMVLVNEK	not soluble
MTDHNLLPEPKKILWRVSELNRNARVILEQTFPLLWVSGEISNLKRYPSGHWYFSLKDDSAQVRCVMFRHKNLYLDWIPQEGMQVEAQALVTLYEARGEFQLTVEQLRRAGLGALFEAFERLKARLQQEGLFSPEYKQPLPRFPRQIGIITSPNTAALRDVLTTLQLRLPSIPVVIYPAPVQGEGSAAAITTALHTAAVRGECDVLILCRGGGSIEDLWAFNEEIVARAIAACPIPIVTGIGHETDFTIADFVADARAPTPTGAAQLASPDRQAILHRLQYWLHRLQQTMERHIERRMQATDLLAHRLIHPGERIRHQQMHLLQLRGRLQNAWNRQVEIRTWRIEETGRRIHSAKPDIQAGIRHQQELAARLQRAMAHRLENLQFKLRQQQQHLIHLDPKAVLARGYSIAYTARGDILHDSRQTRAGDNVRLVFASGWAKADITETGE	not soluble
MTYQTIVVAVDGSKEAEWALKKAIQIAKRNGAKLILSHIIDLRGFTTVEAHDYALAERSEQYANELLERYKNEAIAAGLDDVDIAVEFGSPKVKIAKDVAPKYKADLIVCGATGLNAVERLLIGSVSENIVRHAKCDVLVVRTPKE	soluble
MASDGVVVEIGKVTGSVGTTVEIPVYFRGVPSKGIANCDFVFRYDPNVLEIIGIDPGDIIVDPNPTKSFDTAIYPDRKIIVFLFAEDSGTGAYAITKDGVFAKIRATVKSSAPGYITFDEVGGFADNDLVEQKVSFIDGGVNVGNATPTKGATPTNTATPTK	soluble
MSLRIKNNEVAVYAIGGLHEIGKNMYCVQYQDEIIIMDCGIKFPEDDLLGINYVISDYSYLIKNRKKIKALVVSHGHEDHIGGIPFLLEKIPEIPVYATPFALSLIRGKLEEHGILKTTELHEEHEDTVLKFKKLSVSFFRTTHSIPDTLGIAVHTPLGAVVFTGDFKFDLTPVMDQPAPDFQKMAKLGNEGVLALLSDSTNAEVTQFTKSERFVAQSLHNIITGIHGRIIFATFASNLYRVSTAIQAAIDTGRKVAIFGRSMENGVDNGIDLGYLDIPKDLIVDAEEINKLPPDKVMILCTGSQGEPLAALSRIANGTHRQITLQPGDTVIFSSNPIPGNTLSVNHLINKLMEGGANVIHGRVNNVHTSGHGGQEELKMMVRLTKPKYMIPVHGEYRMQVIHTQLAQQAGVPAENTFVLSNGEVVCFGPNGARLAGRIPAGDVYVDTSGTADVGNVVVHDRQILSEEGLVVAVATVDYKHKRVLAGPDILSRGFVYMRESTELISQAQKHVYHVLRNEMSKSDKPKESEIKKAITENLSDFLYSKTERRPMILPIIIEKEGHHHHHH	soluble
MSLNLVSEQLLAANGLNHQDLFAILGQLAERRLDYGDLYFQSSYHESWVLEDRIIKDGSYNIDQGVGVRAISGEKTGFAYADQISLLALEQSAQAARTIVRENGEGKVKTLAAVAHQPLYTTLDPLQSMSREEKLDILRRVDKAAREADKRVQEVNASLTGVYELILVAATDGTLAADVRPLVRLSVSVQVEEDGKRERGASGGGGRFGYEYFLADLDGEVRADAWAKEAVRMALVNLSAVAAPAGTLPVVLGAGWPGVLLHEAVGHGLEGDFNRRGTSVFSGQIGEQVASALCTVVDDGTMMNRRGSVAIDDEGTPGQYNVLIENGVLKGYMQDKLNARLMGAAPTGNGRRESYAHLPMPRMTNTYMLAGQSTPQEIIESVEYGIYAPNFGGGQVDITSGKFVFSTSEAYLIENGKVTTPVKGATLIGSGIETMQQISMVGNDLKLDNGVGVCGKEGQSLPVGVGQPTLKVDNLTVGGTA	not soluble
MEEKPKYKRILLKLSGEAFAGEQGYGIDPAFLEYISHEIKNVYDLGVQVAIVIGGGNIFRGFQGKEIGVDRATADYMGMLATVINALALQSALENHVNIPTRVLSAIEMRQVAEPYIRRRAIRHLEKGRIVIFAGGTGNPFFSTDTAAALRAAEIGAEVLIKATKVGGIYDKDPEKYPDAVLIKEISYLEVINMGLKVMDHTALTLCKENEIPIIVLNVKEKGNLRRAVLGEEVGSVVRGLEHHHHHH	not soluble
MSLIKVLIVDDHALVRMGIRRLLEDMSDVDVVADAESGEQALAYVKTHSPDVVLLDMKMPGIDGWEVTRRLKKTNPNIKVIAVTAICSDPLPTRVLQLGAMGYLTKESGAEEMAAAIRKVAKGEKYLSAEIAQKMAINSLQESQDSPFDLLSEREMQVMLMITSGMNVQDIADRLFLSSKTINGYRYRMFEKLGIKNDVELTYLAMKHRIIEHPNDLSQDDEGHHHHHH	soluble
